B1: IM30 wt (inner membrane-associated protein of 30 kDa) (natural protein, Synechocystis, UniProt Q55707 1-267, looked up)
chain: MGLFDRLGRVVRANLNDLVSKAEDPEKVLEQAVIDMQEDLVQLRQAVARTIAEEKRTEQRLNQDTQEAKKWEDRAKLALTNGEENLAREALARKKSLTDTAAAYQTQLAQQRTMSENLRRNLAALEAKISEAKTKKNMLQARAKAAKANAELQQTLGGLGTSSATSAFERMENKVLDMEATSQAAGELAGFGIENQFAQLEASSGVEDELAALKASMAGGALPGTSAATPQLEAAPVDSSVPANNASQDDAVIDQELDDLRRRLNNL
notes: IM30 (Vipp1) of Synechocystis, full-length wild type; calculated MW 31.7 kDa with tag; Forms homo-oligomeric barrels and rods of several MDa; the number of subunits was not measured here; also called wt IM30; Vipp1
B2: IM30 α1-3 (domain or fragment, Synechocystis, UniProt Q55707 26-156, looked up)
chain: EKVLEQAVIDMQEDLVQLRQAVARTIAEEKRTEQRLNQDTQEAKKWEDRAKLALTNGEENLAREALARKKSLTDTAAAYQTQLAQQRTMSENLRRNLAALEAKISEAKTKKNMLQARAKAAKANAELQQTL
notes: IM30 (Vipp1) of Synechocystis, helical hairpin α1-3, residues 26-156 (printed for the α1-3 fragment in the simulation); calculated mass about 17.5 kDa; also called IM30 αH1-3; α1-3 helical hairpin; not shown: His10, N-terminal, kept

Key:
[1] = biological target: the molecule itself; experiment: SEC; Superose 12 10/300, 20 mM HEPES, 100 mM NaCl, pH 7.6, 7°C, 0.5 mL/min; self-association of the purified variant
[2] = biological target: the molecule itself; experiment: cross-linking; BS3 (285 μM), 5.7 μM protein incubated 2 h with DOPG liposomes of increasing concentrations, 25°C, SDS-PAGE; self-association

Protein | binding result [1] | binding result [2]
B1 | binds | –
B2 | – | binds
